Laboratory results as given in US8940299B2, “Method of treating cancer” (Case Western Reserve University, priority 2008, dated 2015).

Experiments:
[1] = system: Complement, IL-2, and IFNγ mRNAs; test: qPCR of complement, IL-2 and IFNγ mRNAs in T cells with PI-103; assay type: cell-based, mouse
Protocol: To test whether this signaling pathway is operational in T cells, we incubated WT T cells with anti-CD3+anti-CD28 plus a specific inhibitor (PI-103) of PI-3Kγ.
We synthesized cDNAs by incubating 20 μl of mRNAs in Sprint PowerScript Single Shots (Clontech, Mountain View, Calif.). A total of 10 μl of diluted cDNA were mixed with 2 μl of primer and 10 μl SYBR green master mix (Applied Biosystems, Foster City, Calif.) and assayed in triplicate on an ABI prism 7000 cycler. In all assays, fold increases are relative to each basal level and standardized to Actin.

EGF receptor (EGFR) = test: EGFR phosphorylation in the 3 tumor lines (immunoprecipitation, anti-phosphotyrosine immunoblot); assay type: cell-based, murine
Description: (§1) Unregulated EGFR signaling has causally linked with certain cancers. Additionally, an earlier study in the literature reported that added C5a can induce EGFR phosphorylation in HeLa cells. Based on these two findings, we next asked whether EGFR phosphorylation in cancers cells is in fact dependent on C3aR/C5aR signal transduction. To do this, we cultured each of the 3 tumor lines in the presence of buffer alone, C5aR-A/C3aR-A and anti-C3a/anti-C5a mAb, or vehicle and nonrelevant mAb controls. After 2 hr, we added increasing amounts of EGF, 2 min after which we extracted the cells with NP-40 lysis buffer. We then immuoprecipitated EGFR from lysates with specific antibody and probed immunoblots of the precipitates with anti-phosphtyrosine mAb. […] To determine this C3aR/C5aR dependent step is an intermediary for EGFR phosphorylation, we repeated the above study this time using PI-103, a specific inhibitor of this enzyme. […] In a converse study, we incubated each of the 3 tumor lines without and with added C5a and measured cell growth.

phospho-Ser473 AKT = test: AKT phosphorylation in WT T cells stimulated with anti-CD3+anti-CD28 (immunoblot, Luminex); assay type: cell-based, mouse; settings: 0.1 μM PI-103, 20 min
Protocol: FIG. 5 illustrates immunoblots of A) anti-phospho-Ser473 AKT (rep of 5 exps) of WT T cells incubated with anti-CD3+anti-CD28±C5aR-A+C3aR-A (10 ng/ml each). B) anti-phospho-Ser473 AKT (rep of 5 exps) of WT or C5ar1−/−C3ar1−/− T cells incubated with anti-CD3+anti-CD28.
FIG. 6 illustrates C5aR and C3aR Ligation Activates PI3-Kγ, which in turn promotes AKT Phosphorylation. […] (p<0.05). […] (B) WT T cells were incubated at 37° C. with anti-CD3+anti-CD28 (1 μg/ml each) for 3 min after which the cells were incubated for 20 min with buffer or 0.1 μM PI-3Kγ-specific inhibitor PI-103. Extracts were immunoblotted with anti-phospho-Ser^473 AKT or total AKT mAb (representative of five experiments). (C) OT-II T cells were incubated with 0.1 μM OVA323-339, WT DCs, and 0.1 μM PI-103±10 ng/ml C5a. Complement, IL-2, and IFNγ mRNAs were quantitated by qPCR. All error bars are ±SD.
To test whether abrogated CD28 costimulation in the absence or blockade of C5aR+C3aR relates to a requirement for these GCPR signals for optimal AKT phosphorylation, we stimulated WT T cells with anti-CD3+anti-CD28±C5aR-A and C3aR-A and assessed AKT phosphorylation by immunoblotting (FIG. 5A) and Luminex assay (FIG. 6A).
Cells were stimulated for 1 hr with 1 μg/ml anti-CD3 and/or anti-CD28 (BD Biosciences) in serum-free RPMI 1640 for qPCR analyses and for 72 hr for IFNγ ELISPOT assays. […]

3 tumor lines = test: Cell growth of the 3 tumor lines without and with added C5a; assay type: cell-based, murine; settings: all 3 tumor lines
Description: as §1

E0771 (breast cancer) = test: Cell growth after mouse C5a treatment in Opti-MEM; assay type: cell-based, murine; settings: 500 nM C5a, 72 hr culture
Protocol: (§2) FIG. 2 illustrates graphs showing cell growth in 3 cancer cell lines (a) MCA 205 (fibrosarcoma), (b) B16 (melanoma cell), and (c) E0771 (breast cancer) after mouse C5a treatment in Opti-MEM media (serum-reduced media).
(§3) (a) MCA 205, (b) B16/F10 and (c) E0771. Data are representative of two experiments with duplicates. MCA 205 and E0771 were treated with 500 nM C5a and B16/F10 was treated with 100 nM C5a respectively.
(§4) Three kinds of cancer cell lines (B 16/F10, MCA 205 and E0771) were used for this experiment. Each cell line was cultured in 12-well plates (3×10^4/well) in serum reduced Opti-MEM media (Invitrogen) containing L-glutamine and penicillin+streptomycin for the indicated times (24 hr, 48 hr and 72 hr). C5a (Cell Sciences) in PBS was added in each well at 0, 24 and 48 hr time point to a final concentration 100 nM for B16/F10 and 500 nM for MCA205 and E0771 based on the preliminary experiment. At each time point (24 hr, 48 hr and 72 hr), live cells were trypsinized and counted using trypan blue (Invitrogen, Carlsbad, Calif.). Experiment was repeated two times with duplicates.

B16/F10 (melanoma cell) = test: Cell growth after mouse C5a treatment in Opti-MEM; assay type: cell-based, murine; settings: 100 nM C5a, 72 hr culture
Protocol: as §2, §3, §4

MCA 205 (fibrosarcoma) = test: Cell growth after mouse C5a treatment in Opti-MEM; assay type: cell-based, murine; settings: 500 nM C5a, 72 hr culture
Protocol: as §2, §3, §4

T cells = test: In vitro T cell viability in serum-free HL-1 medium; assay type: cell-based, mouse; settings: 300 ng/ml C5a added at time 0 and 90 min, both knockouts
Protocol: FIG. 7 illustrates constitutive C5a and C3a Production and Signaling via the C5aR and C3aR GPCRs Influences Cell Viability In Vitro and In Vivo. […] (B) WT and C5ar1^−/−, C3ar1^−/−, and C5ar1^−/− C3ar1^−/− T cells were incubated for 6 hr in serum-free HL-1 medium and viability assayed. (C) WT T cells were incubated at 37° C. for 6 hr in HL-1 medium±anti-C3a, anti-C5a, or anti-C3a+anti-C5a and viability assessed. (D) C3^−/− and C5-deficient T cells were incubated for 6 hr in HL-1 medium±300 ng/ml C5a added at time 0 and 90 min (E) Spleens from naive WT, C3ar1^−/−, C5ar1^−/−, and C3ar1^−/− C5ar1^−/− mice were isolated (three to five animals per group), total cell numbers were counted, and the CD3^+ fraction was determined by flow cytometry (WT=10%, C5ar1^−/−=5.4%, C3ar1^−/−=6.3, and C5ar1^−/− C3ar1^−/−=4.1%). (F) Immediately after isolation and labeling, 10^6 CFSE-labeled WT T cells and CellTracker Red CMTPX-labeled C5ar1^−/− C3ar1^−/− T cells were adoptively cotransferred into the same SCID mice (n=4 mice per group for each time point). […]
To test this possibility, we compared the survival of WT and C5ar1^−/− C3ar1^−/− T cells in vitro […]. […] Fewer surviving C5ar1^−/− C3ar1^−/− T cells were detected at 6 hr, confirming that disrupted autocrine signaling through both the C5aR and C3aR contributed to the decline (FIG. 7B). […]

PI-3Kγ = PI-3Kγ enzyme activity in immunoprecipitates of tumor lines with added C5a; assay type: cell-based, murine; settings: PI-3Kγ immunoprecipitates
Description: as §1

Molecule: Oc1cccc(-c2nc(N3CCOCC3)c3oc4ncccc4c3n2)c1 [PI-103]
- upregulation of IL-2 and IFNγ mRNA expression ([1]; 0.1 μM PI-103): eliminated
- upregulation of complement gene expression ([1]; 0.1 μM PI-103): prevented
- EGF induced EGFR phosphorylation (EGF receptor (EGFR); 3 tumor lines, 2 hr pre-treatment, increasing amounts of EGF for 2 min): inhibited EGFR phosphorylation in an identical fashion
- anti-CD3+anti-CD28-induced phosphorylation of AKT (phospho-Ser473 AKT): abrogated

B1: C5a: Murine C5a complement anaphylatoxin from Cell Sciences (protein)
chain: NLHLLRQKIEEQAAKYKHSVPKKCCYDGARVNFYETCEERVARVTIGPLCIRAFNECCTIANKIRKESPHKPVQLGR
- overcoming of the suppressive effects of PI-103 by added C5a ([1]; 0.1 μM PI-103 + 10 ng/ml C5a): could not be overcome
- tumor cell numbers (3 tumor lines): increased tumor cell numbers
- EGFR phosphorylation (EGF receptor (EGFR); anti-EGFR immunoprecipitates, added C5a): augmented EGFR phosphorylation
- cell survival in comparison with control (E0771 (breast cancer)): enhances cell survival
- cell survival in comparison with control (B16/F10 (melanoma cell)): enhances cell survival
- cell survival in comparison with control (MCA 205 (fibrosarcoma)): enhances cell survival
- augmentation of 6 hr viability of C5-deficient or C3−/− T cells (T cells): ~25%
- PI-3Kγ enzyme activity (PI-3Kγ): augmented PI-3Kγ enzyme activity
